# Values of other authors in article PMC3798119.
# Target: basigin (CD147) (Homo sapiens) (UniProt P35613)
# Chain of UniProt P35613 (P35613 22-325): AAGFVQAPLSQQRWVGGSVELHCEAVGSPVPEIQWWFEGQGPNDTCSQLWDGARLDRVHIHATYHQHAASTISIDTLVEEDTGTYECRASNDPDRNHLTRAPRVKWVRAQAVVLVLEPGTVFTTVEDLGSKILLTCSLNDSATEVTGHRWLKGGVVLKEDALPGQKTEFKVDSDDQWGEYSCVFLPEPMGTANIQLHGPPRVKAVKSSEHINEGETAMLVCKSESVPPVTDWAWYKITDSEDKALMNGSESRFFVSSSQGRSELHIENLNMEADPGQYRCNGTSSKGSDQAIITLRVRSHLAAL
substance,measurement,value
RH5 (from UniProt Q8IFM5),Kd,1100 nM
